The source of these data is publication doi:10.1101/2020.05.01.070730 (bioRxiv, 2020).

Read-outs that look alike come from different tables or passages of the source.

Series [1] concerns the target T1, MutS (Pseudomonas aeruginosa, UniProt Q9HY08 1-855).
T1 sequence: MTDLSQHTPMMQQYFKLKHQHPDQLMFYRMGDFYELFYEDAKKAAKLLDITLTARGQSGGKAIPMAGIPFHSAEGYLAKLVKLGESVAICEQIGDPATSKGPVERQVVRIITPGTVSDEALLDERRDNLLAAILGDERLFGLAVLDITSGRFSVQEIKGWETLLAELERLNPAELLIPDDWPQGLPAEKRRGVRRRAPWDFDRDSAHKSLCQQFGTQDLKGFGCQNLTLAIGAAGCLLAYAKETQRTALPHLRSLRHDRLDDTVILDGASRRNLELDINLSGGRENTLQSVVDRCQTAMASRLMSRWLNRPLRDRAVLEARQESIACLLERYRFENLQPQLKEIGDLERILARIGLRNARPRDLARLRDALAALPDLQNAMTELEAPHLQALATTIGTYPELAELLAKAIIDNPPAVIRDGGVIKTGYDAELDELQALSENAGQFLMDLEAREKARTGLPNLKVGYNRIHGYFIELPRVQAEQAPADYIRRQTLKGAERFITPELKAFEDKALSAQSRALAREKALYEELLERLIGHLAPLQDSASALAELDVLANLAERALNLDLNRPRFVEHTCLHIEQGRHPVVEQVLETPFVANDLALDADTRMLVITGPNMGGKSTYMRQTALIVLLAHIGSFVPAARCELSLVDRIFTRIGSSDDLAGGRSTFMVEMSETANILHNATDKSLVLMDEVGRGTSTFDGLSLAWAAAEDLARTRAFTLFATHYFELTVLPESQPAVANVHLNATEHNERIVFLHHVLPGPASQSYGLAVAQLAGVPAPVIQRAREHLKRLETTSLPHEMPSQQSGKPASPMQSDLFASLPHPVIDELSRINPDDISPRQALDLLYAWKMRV
Put plainly: SPR.

Series [2] concerns the target T2, MutS R842E (Pseudomonas aeruginosa, UniProt Q9HY08 1-855, R842E).
T2 sequence: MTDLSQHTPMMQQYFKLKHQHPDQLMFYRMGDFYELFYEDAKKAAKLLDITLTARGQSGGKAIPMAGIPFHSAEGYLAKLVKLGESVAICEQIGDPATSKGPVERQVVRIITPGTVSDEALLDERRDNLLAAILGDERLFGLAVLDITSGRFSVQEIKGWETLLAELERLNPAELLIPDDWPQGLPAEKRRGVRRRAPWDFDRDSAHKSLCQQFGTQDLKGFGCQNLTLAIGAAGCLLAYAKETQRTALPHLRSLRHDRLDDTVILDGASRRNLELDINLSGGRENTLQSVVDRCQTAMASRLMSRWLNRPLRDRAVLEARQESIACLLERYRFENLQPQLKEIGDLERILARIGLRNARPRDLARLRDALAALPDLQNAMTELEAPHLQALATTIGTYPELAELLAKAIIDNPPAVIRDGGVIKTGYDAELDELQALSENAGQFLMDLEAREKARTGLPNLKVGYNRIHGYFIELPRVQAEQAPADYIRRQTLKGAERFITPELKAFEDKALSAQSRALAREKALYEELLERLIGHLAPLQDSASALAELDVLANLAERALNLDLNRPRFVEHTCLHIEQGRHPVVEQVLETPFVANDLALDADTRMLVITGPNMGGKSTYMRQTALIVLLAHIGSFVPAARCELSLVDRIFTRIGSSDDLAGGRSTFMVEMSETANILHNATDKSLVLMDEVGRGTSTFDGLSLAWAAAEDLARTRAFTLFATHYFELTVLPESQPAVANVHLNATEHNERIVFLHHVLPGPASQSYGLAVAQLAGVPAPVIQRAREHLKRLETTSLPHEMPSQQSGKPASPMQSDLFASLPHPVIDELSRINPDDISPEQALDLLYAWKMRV
Put plainly: native PAGE shift.

For series [3], the target named is T1, MutS. The experiment in a line: SPR. This is another data set of the same source. On the technique in general: SPR reads the build-up and loss of mass on a sensor chip optically.

B1: GT-pDNA (GT 8 nt from 3'-OH) (dsDNA)
DNA 1: ATGTGAATCAGTATGGTTGCTATCTGC
DNA 2: ATTTCCTTCAGCAGATAGTAACCATACTGATTCACAT
On to B1, for which the Kd (usually the concentration at which binding is half-saturated) in series [1] was determined as 53.3 ± 3.7 nM.

B2: dsDNA (dsDNA)
DNA 1: ATGTGAATCAGTATGGTTACTATCTGCTGAAGGAAAT
DNA 2: ATTTCCTTCAGCAGATAGTAACCATACTGATTCACAT
With B2, in series [2], the binding result is “binds”.

B3: pDNA (AT) (dsDNA)
DNA 1: ATGTGAATCAGTATGGTTACTATCTGC
DNA 2: ATTTCCTTCAGCAGATAGTAACCATACTGATTCACAT
Consider B3, for which the binding result in series [2] was “binds”.

B4: GT-dsDNA (GT 18 nt from 3' end) (dsDNA)
DNA 1: ATGTGAATCAGTATGGTTGCTATCTGCTGAAGGAAAT
DNA 2: ATTTCCTTCAGCAGATAGTAACCATACTGATTCACAT
Turning to B4, the binding result in series [2] is reported as “binds”. Besides, in series [3], binding was characterised by a dissociation constant (Kd) of 118 ± 8.9 nM.
